One may read the pKd as the negative decadic logarithm of the Kd, by convention in mol/L. Usually stoichiometry N stands for the number of molecules, sites or subunits per partner or assembly.

The record followed here is article PMC9932110.

Assay [1] concerns the target Twa1–Armc8β complex (mouse) (UniProt Q9D7M1). The experiment in a line: SEC-MALS; Tβ complex, dilution series; molar mass at the peak against peak concentration, one-site model; Tβ heterodimer to higher order oligomers. (SEC sorts molecules by how far they enter the pores of the column.)
The target of assay [2] is Armc8β (mouse). The experiment in a line: SEC-MALS; Armc8β alone, dilution series from two purifications; molar mass at the peak against peak concentration, one-site and two-site models; monomer to dimer and higher.
Assay [3] deals with Armc8β (mouse). The experiment in a line: native gel or EMSA; blue native PAGE of Armc8β. On the technique in general: In EMSA bound probe runs differently from free probe, usually more slowly.
Another assay addresses Wdr26 (mouse) (UniProt Q8C6G8). Description: ITC; ITC-200, 25 °C, 20 mM tricine pH 8.0, 150 or 200 mM NaCl, 1 mM TCEP; 50-150 μM in the syringe, 10 times lower in the cell; one-site model. In general terms: ITC needs no label: the signal is the heat of the interaction.
A further assay has as its target muskelin (rat) (UniProt Q99PV3). The assay is described as above.
For assay [4], the target named is Armc8β (mouse). Described as above.
For assay [5], the target named is Armc8β (mouse). Description: SEC-MALS; Twa1, Armc8β and their mixture at low concentrations.

pKd: −log10 of the molar value. Where only a bound is given, the exact number is not on record here.

Chain of Wdr26 (mouse) (Q8C6G8 other isoform, or with tags, fused parts or gaps): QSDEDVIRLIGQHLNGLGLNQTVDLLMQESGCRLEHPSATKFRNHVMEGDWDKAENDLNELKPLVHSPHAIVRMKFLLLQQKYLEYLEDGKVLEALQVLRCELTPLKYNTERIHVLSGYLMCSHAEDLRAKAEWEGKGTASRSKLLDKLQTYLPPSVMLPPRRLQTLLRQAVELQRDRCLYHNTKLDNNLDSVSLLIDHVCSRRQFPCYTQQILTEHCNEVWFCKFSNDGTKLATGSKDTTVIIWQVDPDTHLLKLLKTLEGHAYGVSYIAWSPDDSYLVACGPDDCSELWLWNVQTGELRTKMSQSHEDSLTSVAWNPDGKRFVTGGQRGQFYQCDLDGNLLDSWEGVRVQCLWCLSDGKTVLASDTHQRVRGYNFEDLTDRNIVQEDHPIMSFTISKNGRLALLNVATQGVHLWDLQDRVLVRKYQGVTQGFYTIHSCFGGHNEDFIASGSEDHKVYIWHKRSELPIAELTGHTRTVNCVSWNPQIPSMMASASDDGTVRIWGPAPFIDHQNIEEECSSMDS
Chain of Twa1 (Q9D7M1 whole entry): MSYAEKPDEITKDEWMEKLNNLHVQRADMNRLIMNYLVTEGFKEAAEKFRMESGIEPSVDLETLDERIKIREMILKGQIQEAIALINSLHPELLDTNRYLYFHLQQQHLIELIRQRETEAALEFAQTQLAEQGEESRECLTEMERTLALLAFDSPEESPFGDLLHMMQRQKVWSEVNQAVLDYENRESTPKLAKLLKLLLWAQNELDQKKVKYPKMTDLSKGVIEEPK
Chain of muskelin (rat) (Q99PV3 whole entry): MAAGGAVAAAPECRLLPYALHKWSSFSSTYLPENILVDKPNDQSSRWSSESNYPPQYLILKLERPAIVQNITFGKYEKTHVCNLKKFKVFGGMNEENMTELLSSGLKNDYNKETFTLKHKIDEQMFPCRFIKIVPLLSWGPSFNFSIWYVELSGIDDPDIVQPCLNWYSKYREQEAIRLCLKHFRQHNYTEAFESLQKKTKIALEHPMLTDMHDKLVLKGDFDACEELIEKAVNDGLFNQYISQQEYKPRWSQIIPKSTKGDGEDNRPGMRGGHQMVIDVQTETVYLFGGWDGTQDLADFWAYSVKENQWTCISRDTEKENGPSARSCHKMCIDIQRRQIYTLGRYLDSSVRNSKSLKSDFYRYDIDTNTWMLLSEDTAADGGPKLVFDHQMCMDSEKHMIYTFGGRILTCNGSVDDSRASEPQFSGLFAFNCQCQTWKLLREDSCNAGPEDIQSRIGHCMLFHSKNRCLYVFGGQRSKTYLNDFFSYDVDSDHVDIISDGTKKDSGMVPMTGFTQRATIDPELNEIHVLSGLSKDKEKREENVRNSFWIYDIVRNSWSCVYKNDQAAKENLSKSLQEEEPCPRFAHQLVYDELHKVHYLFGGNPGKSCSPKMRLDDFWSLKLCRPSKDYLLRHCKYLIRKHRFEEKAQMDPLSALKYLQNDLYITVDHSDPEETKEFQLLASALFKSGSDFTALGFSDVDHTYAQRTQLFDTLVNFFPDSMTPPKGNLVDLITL

In assay [1], “Twa1–Armc8β complex (from UniProt Q9D7M1 1-228)” had a pKd of 5.21 and a stoichiometry N of 8.2.
Regarding Armc8β (natural protein), in the assay with Armc8β (mouse) [2], the KD high (two-site binding model) was determined as 1800 nM, the KD low (two-site binding model) was greater than 40000 nM, the negative-log Kd (pKd) is 5.29 and the stoichiometry N lay within 1 to 2. Further, the stoichiometry N with Armc8β (mouse) [3] came out at 3.
Regarding “RanBP9–Twa1 complex (from UniProt P69566 1-653; Q9D7M1 1-228)”, the pKd with Wdr26 (mouse) was 8.47; in the assay with muskelin (rat), 8.77; in the assay with Armc8β (mouse) [4], 8.09. The figures for the stoichiometry N with Wdr26 (mouse) and in the assay with muskelin (rat) were 0.95 and 1, respectively.
As to “Twa1 (from UniProt Q9D7M1 1-228) (natural protein)”, the stoichiometry N in the assay with Armc8β (mouse) [5] was determined as 1. Besides, the pKd with Armc8β (mouse) [4] was 7.46.
